“And” between values parts separate entries of the source, which are not always exact repeats. Equal entries are not always repeated.
Target: the molecule itself
Test: cross-linking

B1: MISO-Flag (human C3orf33, long isoform), in U2OS cells (natural protein, UniProt Q6P1S2 1-294, looked up)
chain: MAGQPAATGSPSADKDGMEPNVVARISQWADDHLRLVRNISTGMAIAGIMLLLRSIRLTSKFTSSSDIPVEFIRRNVKLRGRLRRITENGLEIEHIPITLPIIASLRKEPRGALLVKLAGVELAETGKAWLQKELKPSQLLWFQLLGKENSALFCYLLVSKGGYFSVNLNEEILRRGLGKTVLVKGLKYDSKIYWTVHRNLLKAELTALKKGEGIWKEDSEKESYLEKFKDSWREIWKKDSFLKTTGSDFSLKKESYYEKLKRTYEIWKDNMNNCSLILKFRELISRINFRRKG
**Q.** Which “stoichiometry N” value does the source give for B1 here?
**A.** 2 and 3

From paper doi:10.1101/2025.01.05.631328 (bioRxiv, 2025)
